Laboratory results published in patent publication US20090018093.
Like-named read-outs stand apart in the source and are kept apart here.

Test system: Immunoglobulin E (IgE) (Homo sapiens), P01854-1
Experiment: filter
[1] = 2'-OMe/2'-deoxy mix, 3:21 pair changed, DPBS Mg/Ca, 0.1 mg/mL BSA, RT

Chain of Immunoglobulin E (IgE) (Homo sapiens), P01854-1 (P01854 other isoform, or with tags, fused parts or gaps): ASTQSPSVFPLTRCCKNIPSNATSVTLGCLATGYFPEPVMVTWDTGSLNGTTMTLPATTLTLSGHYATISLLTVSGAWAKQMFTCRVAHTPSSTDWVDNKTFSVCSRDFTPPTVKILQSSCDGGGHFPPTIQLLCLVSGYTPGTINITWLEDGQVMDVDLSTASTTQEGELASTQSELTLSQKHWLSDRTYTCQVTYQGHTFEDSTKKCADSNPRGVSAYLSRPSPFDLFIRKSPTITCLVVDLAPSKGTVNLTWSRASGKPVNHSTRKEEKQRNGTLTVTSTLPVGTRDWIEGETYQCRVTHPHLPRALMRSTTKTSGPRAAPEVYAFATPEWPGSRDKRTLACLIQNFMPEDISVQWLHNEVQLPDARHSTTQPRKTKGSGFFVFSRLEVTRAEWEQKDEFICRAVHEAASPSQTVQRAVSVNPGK

“GGGGCTACTTTATCCGTTCCTCCTAGTGGGTAGCCCC [ARC1415]” showed a Kd (2'-OMe at 1-4,7,33-37, multiple PS as printed, 3' idT [2'-OMe at 1-4,7,33-37, PS 9-10,12-13,14-15,18-19,21-22,24-25,27-28,30-31, 3' idT cap after 37 (left out)], DPBS Mg/Ca, BSA) of 1.2 nM.
“GGGGCTACUTTATCCGTTCCTCCTAGTGGGTAGCCCC [ARC1273]” gave a Kd (DNA with 2'-OMe U9, 3' idT [2'-OMe U9, 3' inverted dT38], dPBS Ca/Mg + BSA) of 3 nM.
Work on AGCCUGGGGACCCAUGGGGGGCU [ARC1259] yielded a Kd (2'-OMe G17 and all C,U, rest 2'-deoxy, 3' idT [2'-OMe at 3,4,5,11,12,13,15,17,22,23, 3'-idT at 24], DPBS Mg/Ca, 0.1 mg/mL BSA, RT) of 5 nM.
“AGCCNUGGGNGACCCAUNNNGNNGNNGCUN [ARC2972]” was tested, and the Kd (ARC1666 chemistry + PS 4-5, 3' idT, DPBS Mg/Ca, BSA, RT) was 0.05 nM.
“GGGGCTACTTTATCCGTTCCTCCTAGTGGGTAGCCCCT [ARC1300]” was tested, and the Kd (2'-OMe at 36, 3' idT [2'-OMe: 36, 38 = 3' inverted dT], DPBS Mg/Ca, BSA) was 0.7 nM.
“AGCCUGGNGNGACCCAUNNNGNNGNNGCUN [ARC2975]” gave a Kd (ARC1666 chemistry + PS 7-8, 3' idT, DPBS Mg/Ca, BSA, RT) of 0.04 nM.
AGCCUGGGGACCCAUGGGGGGCU [ARC1260] showed a Kd (2'-OMe C,U and G18, other A,G deoxy, 3' idT [2'-OMe: 3,4,5,11,12,13,15,18,22,23, 2'-deoxy: 1,2,6,7,8,9,10,14,16,17,19,20,21, 24 = 3' inverted dT], dPBS Ca/Mg + BSA, RT) of 102 nM.
“GGGGCTACTTTATCCGTTCCTCCTAGTGGGTAGCCCCT [ARC1286]” showed a Kd (DNA with 2'-OMe C22, 3' idT [2'-OMe C22, 3' inverted dT38], dPBS Ca/Mg + BSA) of 7 nM.
“GGGGCTACTTTATCCGTTCCTCCTAGTGGGTAGCCCCT [ARC1292]” gave a Kd (DNA with 2'-OMe G28, 3' idT [2'-OMe G28, 3' inverted dT at 38], dPBS Ca/Mg + BSA) of 22 nM.
Sequence AGCCUGGGGACCCAUGGGGGGCU [ARC1566] has a Kd (ARC1335 pattern with dI20, 3' idT [dI20 (inosine, parent base G), 3' inverted dT24, rest ARC1335 pattern], dPBS Ca/Mg + BSA, RT) of 0.1 nM.
For “GGGGCTACTTTATCCGTTCCTCCTAGTGGGTAGCCCCT [ARC656]”, the Kd (3' idT [38 = 3' inverted dT], dPBS Ca/Mg + BSA) was 0.2 nM.
Work on “GGGGCTACTTTATCCGTTCCTCCTAGTGGGTAGCCCCT [ARC1266]” yielded a Kd (2'-OMe at 2, 3' idT [2 (2'-OMe G), 38 (3' inverted dT)], DPBS Mg/Ca, BSA) of 0.2 nM.
For AGCCUGGGNGACCCAUNNNGNNGNNGCUN [ARC3265], the Kd (ARC1666 chemistry with 2'-OMe G8,G9, 3' idT, DPBS Mg/Ca, BSA, RT) was 0.29 nM.
For “GGGGCTACTTTATCCGTTCCUCCTAGTGGGTAGCCCCN [ARC1285]”, the Kd (2'-OMe U at 21, 3' idT, DPBS Mg/Ca, BSA) was 0.8 nM.
“GGGGCTACTTTATCCGTTCCTCCTAGTGGGTAGCCCCN [ARC1283]” was tested, and the Kd (2'-OMe at 19, 3' idT, DPBS Mg/Ca, BSA) was 0.6 nM.
In the case of “AGCCUGGGNGACCCAUNNNGNNGNNGNCNUNN [ARC3274]”, the Kd (ARC2342 chemistry with 2'-OMe G9,I16, 3' idT, DPBS Mg/Ca, BSA, RT) is reported as 0.12 nM.
In the case of AGCCUGGGGACCCAUGGGGGGC [ARC2344], the Kd (ARC1666 pattern without 3' idT [dI (written G) at 16,18,20, 2'-OMe 1-5,7,10-15,17,22, deoxy 6,8,9,16,18-21, PS 8/9,15/16,16/17,18/19,20/21, no 3' idT], dPBS + BSA, RT) is reported as 0.41 nM.
With “GGGGCUACTTTATCCGTTCCTCCTAGTGGGTAGCCCC [ARC1388]” the Kd (2'-OMe at 1-8,33-37, 3' idT [2'-OMe: 1-8,33-37, 38 = 3' inverted dT], DPBS Mg/Ca, BSA) was 4.4 nM.
In the case of “AGCCUGGGNGACCCAUNNNGNNGNNGNCNUNN [ARC3275]”, the Kd (ARC2342 chemistry with 2'-OMe G8,G9,I16, 3' idT, DPBS Mg/Ca, BSA, RT) is reported as 0.67 nM.
Sequence “GGGGCTACTTTATCCGTTCCTCCTAGTGGGTAGCCCCT [ARC1301]” has a Kd (2'-OMe at 37, 3' idT [2'-OMe: 37, 38 = 3' inverted dT], DPBS Mg/Ca, BSA) of 0.5 nM.
“GGGGCACATTTATCCGTCCCTCCTAGTGGTGTGCCCC [DNA clone SEQ 119]” showed a Kd of 0.6 nM.
With “AGCCUGGGNGACNCCAUNNNGNNGNNGCUN [ARC2978]” the Kd (ARC1666 chemistry + PS 11-12, 3' idT, DPBS Mg/Ca, BSA, RT) was 0.05 nM.
“GGGGCUACTTTATCCGTTCCTCCTAGTGGGUAGCCCC [ARC1303]” showed a Kd (2'-OMe stem block as printed in Table 18, 3' idT [2'-OMe: stem block (exact positions not given in the material), 38 = 3' inverted dT], DPBS Mg/Ca, BSA) of 1.3 nM.
AGUCUGGGGACCCAUGGGGGACU [ARC1246] gave a Kd [1] of 34 nM.
“GGGAGAGGAGAGAACGUUCUACCAACGGCAUCCUGGGCCCCACAGGGGAUGUCGCUGUCGAUCGAUCGAUCGAUG [ARC2002]” gave a Kd (dRmY: 2'-deoxy A,G, 2'-OMe C,U, error 6, dPBS Ca/Mg + BSA, RT) of 8 nM.
For AGCCUGGGGACCCAUGGGGGGCU [ARC1263], the Kd (2'-OMe C,U and G21, other A,G deoxy, 3' idT [2'-OMe: 3-5,11-13,15,21-23, deoxy: 1,2,6-10,14,16-20, 24 = 3' inverted dT], dPBS Ca/Mg + BSA, RT) was 64 nM.
“GGGGCTACTTTATCCGTTCCTCCTAGTGGGTAGCCCCT [ARC1265]” gave a Kd (2'-OMe at 1, 3' idT [1=2'-OMe G, 38=3' inverted dT], DPBS Mg/Ca, BSA) of 0.2 nM.
For AGCCUGGGGACCCAUGGGGGGCU [ARC3263], the Kd (ARC1666 pattern with 2'-OMe G9, 3' idT [dI (written G) at 16,18,20, 2'-OMe 1-5,7,9,10-15,17,22,23, deoxy 6,8,16,18-21, PS 8/9,15/16,16/17,18/19,20/21, 3' inverted dT left out], dPBS Ca/Mg + BSA, RT) was 0.026 nM.
“AGCCUGGGNGACCCAUNNNGNNGNNGNCNUNN [ARC3272]” was tested, and the Kd (ARC2342 chemistry with 2'-OMe G8,G9, 3' idT, DPBS Mg/Ca, BSA, RT) was 0.12 nM.
In the case of AGUAGCCUGGGGACCCAUGGGGGGCUACU [ARC3276], the Kd (mAmGmUmAmGmCmCmUdGmGdG-s-dGmAmCmCmCmAmU-s-dI-s-mGdI-s-dGdI-s-dGmCmUmAmCmU [dI (written G) at 19,21,23, 2'-OMe 1-8,10,13-18,20,25-29, deoxy 9,11,12,19,21-24, PS 11/12,18/19,19/20,21/22,23/24, 3' inverted dT left out], dPBS Ca/Mg + BSA, RT) is reported as 0.03 nM.
Work on “GGGGCTACTTTATCCGTTCCTCCTAGTGGGTAGCCCCN [ARC1294]” yielded a Kd (2'-OMe at 30, 3' idT, DPBS Mg/Ca, BSA) of 8 nM.
“GGGAGAGGAGAGAACGUUCUACAAGCAGUUCUGGGGACCCAUGGGGGAAGUGCGCUGUCGAUCGAUCGAUCGAUG [ARC1992]” showed a Kd (dRmY: 2'-deoxy A,G, 2'-OMe C,U, error 8, dPBS Ca/Mg + BSA, RT) of 10 nM.
“GGGGCTACTTTATCCGTTCCTCCUAGTGGGTAGCCCCN [ARC1288]” showed a Kd (2'-OMe U at 24, 3' idT, DPBS Mg/Ca, BSA) of 2 nM.
Sequence “GGGGCTACTTTATCCGTUCCTCCTAGTGGGTAGCCCCN [ARC1282]” has a Kd (2'-OMe U at 18, 3' idT, DPBS Mg/Ca, BSA) of 0.2 nM.
“GGGGCTACTTTATCCGTTCCTCCTAGTGGGTAGCCCC [ARC1397]” was tested, and the Kd (2'-OMe at 1-4,7,33-37, PS 14-15, 3' idT [2'-OMe at 1-4,7,33-37, PS linkage 14-15 (internal N = PS, not a base), 3' inverted dT cap (terminal N, left out)], DPBS Mg/Ca, BSA) was 1.8 nM.
Sequence “GGGGCTACTTTATCCGTTCCTCCTAGTGGGTAGCCCCT [ARC1299]” has a Kd (2'-OMe at 35, 3' idT [2'-OMe: 35, 38 = 3' inverted dT], DPBS Mg/Ca, BSA) of 0.5 nM.
With AGCCUGGGGACCCAUGGGGGGCU [ARC1262] the Kd (2'-OMe C,U and G20, other A,G deoxy, 3' idT [2'-OMe: 3,4,5,11,12,13,15,20,22,23, 2'-deoxy: 1,2,6,7,8,9,10,14,16,17,18,19,21, 24 = 3' inverted dT], dPBS Ca/Mg + BSA, RT) was 32 nM.
AGCCUGGGGACCCAUGGGGGGCU [ARC1548] showed a Kd (ARC1335 chemistry with dI2, 3' idT [2=dI (G parent), 24=3' inverted dT], DPBS Mg/Ca, 0.1 mg/mL BSA, RT) of 3.3 nM.
AGCCUGGGGACCCAUGGGGGGCU [ARC1333] showed a Kd (2'-OMe G2,G7,G17 and all C,U, rest 2'-deoxy, 3' idT [2'-OMe G2,C3,C4,U5,G7,C11,C12,C13,U15,G17,C22,U23, 3' inverted dT at 24], DPBS Mg/Ca, 0.1 mg/mL BSA, RT) of 1.5 nM.
Sequence “AGCCUGGGNGACCCAUNNNGNNGNNNGCUN [ARC2983]” has a Kd (ARC1666 chemistry + PS 19-20, 3' idT, DPBS Mg/Ca, BSA, RT) of 0.02 nM.
Sequence “GGGGCUACTTUATCCGUUCCTCCTAGTGGGTAGCCCC [ARC1417]” has a Kd (DNA with 2'-OMe 1-8,U11,U17,U18,C20,33-37, multiple PS, 3' idT [2'-OMe 1-8, U11, U17, U18, C20, 33-37, PS 9/10, 12/13, 14/15, 21/22, 24/25, 27/28, 30/31 (printed N = PS linkage, left out), 3' inverted dT at 38], dPBS Ca/Mg + BSA) of 27 nM.
With AGGCUGGGGACCCAUGGGGGCCU [ARC1245] the Kd [1] was 198 nM.
With “GGGGCUACTTUATCCGUUCCTCCTAGTGGGTAGCCCC [ARC1390]” the Kd (2'-OMe at 1-8,11,17,18,20,33-37, 3' idT [2'-OMe: 1-8,11,17,18,20,33-37, 38 = 3' inverted dT], DPBS Mg/Ca, BSA) was 17 nM.
With “GGGGCTACTTTATCCGTTCCTCCTAGTGGGTAGCCCCT [ARC1271]” the Kd (2'-OMe at 7, 3' idT [7 (2'-OMe A), 38 (3' inverted dT)], DPBS Mg/Ca, BSA) was 0.2 nM.
Sequence “GCGGGCAAATTCATCCGTCCCTCCTAGTGGTTTGCCC [DNA clone SEQ 147]” has a Kd of 0.5 nM.
